Experimental findings from US20200140551A1 (GlaxoSmithKline, published 2020) are described below.

Experiment [1] concerns the target T1, human ICOS on human T cells (human, UniProt Q9Y6W8 21-167).
T1 construct: endogenous receptor on primary cells; also called ICOS on CD4+ and CD8+ T cells of healthy human donors
T1 sequence: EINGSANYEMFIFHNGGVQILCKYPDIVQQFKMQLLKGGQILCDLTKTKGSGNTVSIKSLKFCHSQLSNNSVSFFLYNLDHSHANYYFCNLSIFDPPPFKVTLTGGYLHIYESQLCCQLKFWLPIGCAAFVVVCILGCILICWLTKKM
As to the kind of experiment: flow cytometry, activated human CD8 T cells, FITC MFI, donor 1124F36. The procedure:
(§1) Binding of H2L5 hIgG4PE was assessed in both naive and activated CD3+ T cells.
(§2) Either naive and/or activated CD3+ T cells were re-suspended in PBS with 0.1% BSA (FACS Buffer) containing Human FcR Blocking Solution at 2×10⁶ cells/mL (5 μl FcR Blocking Solution+[…] FACS Buffer per 1 mL). At a concentration of 2×10⁵ cells/well, 100 μl cells were placed into 2 mL 96 well Assay Blocks and incubated at room temperature for 15 minutes. During the incubation, a titration of the binding antibodies, anti-ICOS (H2L5 hIgG4PE) or IgG4 Isotype Control antibody was prepared as a 2× concentration. […] Following the binding incubation, cells were washed twice in 1 mL of FACS buffer, centrifuging at 400×g for 5 minutes at room temperature.
(§3) Data acquisition and compensation were performed on BD FACS instruments, LSR Fortessa X-20 or FACS Canto II using BD Diva (ver. 8.0) software. Data analysis employed Flow Jo software (ver.10.0.8r1). Results are reported as both MFI (Median Fluorescence Intensity) and Percent of cells positive for human IgG kappa light chain FITC staining out of the total live cells or appropriate parent population. EC50s were determined using Graphpad Prism 5 software (ver. 5.04) with non-linear regression of transformed data (X=(log(X)) using a variable slope with 4 parameters (log(Agonist) vs. response—Variable slope).
(In general: Flow cytometry measures light scatter and fluorescence of single cells or particles in a stream.)

Experiment [2] has as its target T1, human ICOS on human T cells. Put plainly: flow cytometry, activated human CD8 T cells, FITC MFI, mean of donors. The procedure:
as §1, §2, §3

The target is the same in experiment [3]. As to the kind of experiment: flow cytometry, activated human CD8 T cells, FITC MFI, median of donors. On the procedure: as §2, §3
Experiment [4] has as its target T2, human FcγR IIa H131 (human, UniProt P12318 36-218, limits assumed).
T2 sequence (looked up): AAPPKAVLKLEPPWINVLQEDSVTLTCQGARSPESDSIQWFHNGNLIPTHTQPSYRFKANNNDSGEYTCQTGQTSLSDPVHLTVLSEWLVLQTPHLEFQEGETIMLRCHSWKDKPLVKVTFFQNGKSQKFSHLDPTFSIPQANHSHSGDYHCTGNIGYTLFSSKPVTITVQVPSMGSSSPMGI
As to the kind of experiment: affinity to human Fcγ receptors (Table 6; NB = no binding); method not described.

In experiment [5] the target is T3, human FcγR IIIa V158 (human, UniProt P08637 17-208).
T3 construct: allotype with Val at position 158 as printed
T3 sequence (P08637 17-208 F176V limits assumed): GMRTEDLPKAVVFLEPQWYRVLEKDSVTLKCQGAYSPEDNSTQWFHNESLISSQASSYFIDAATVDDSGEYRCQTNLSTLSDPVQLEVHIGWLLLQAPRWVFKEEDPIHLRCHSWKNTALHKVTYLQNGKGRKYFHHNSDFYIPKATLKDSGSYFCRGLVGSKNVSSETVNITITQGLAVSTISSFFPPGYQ
Described as above.

The target in experiment [6] is T4, human FcγR IIIa F158 (human, UniProt P08637 17-208).
T4 construct: allotype with Phe at position 158 as printed
T4 sequence (P08637 17-208 limits assumed): as the sequence (P08637 17-208 F176V limits assumed) above, with V160F counted along it
The experiment is described as above.

The target in experiment [7] is T1, human ICOS on human T cells. As to the kind of experiment: flow cytometry, activated human CD4 T cells, percent FITC positive, donor 2100M39. On the procedure:
as §2, §3

Experiment [8] shares this target. Put plainly: flow cytometry, activated human CD8 T cells, percent FITC positive, donor 1149M52. The procedure:
as §1, §2, §3

Experiment [9] has the same target. Put plainly: flow cytometry, activated human CD8 T cells, percent FITC positive, median of donors. On the procedure:
as §1, §2, §3

Usually EC50 stands for the concentration that produces a half-maximal response. The low end stands for greater potency, the high end for weaker potency.

B1: H2L5 hIgG4PE (antibody)
heavy: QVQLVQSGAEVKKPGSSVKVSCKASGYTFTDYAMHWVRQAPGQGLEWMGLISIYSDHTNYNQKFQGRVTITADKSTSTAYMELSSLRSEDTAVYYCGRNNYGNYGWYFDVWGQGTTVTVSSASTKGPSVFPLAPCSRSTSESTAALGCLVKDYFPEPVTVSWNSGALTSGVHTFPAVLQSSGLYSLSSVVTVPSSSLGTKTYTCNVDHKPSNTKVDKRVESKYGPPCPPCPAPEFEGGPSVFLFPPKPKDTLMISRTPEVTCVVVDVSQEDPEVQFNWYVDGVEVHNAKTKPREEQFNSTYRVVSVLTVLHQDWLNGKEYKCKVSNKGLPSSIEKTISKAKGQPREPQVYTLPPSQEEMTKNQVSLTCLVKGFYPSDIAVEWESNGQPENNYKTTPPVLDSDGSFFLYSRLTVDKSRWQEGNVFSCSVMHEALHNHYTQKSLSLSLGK
light: EIVLTQSPATLSLSPGERATLSCSASSSVSYMHWYQQKPGQAPRLLIYDTSKLASGIPARFSGSGSGTDYTLTISSLEPEDFAVYYCFQGSGYPYTFGQGTKLEIKRTVAAPSVFIFPPSDEQLKSGTASVVCLLNNFYPREAKVQWKVDNALQSGNSQESVTEQDSKDSTYSLSSTLTLSKADYEKHKVYACEVTHQGLSSPVTKSFNRGEC
notes: also called 422 H2L5 hIgG4PE; H2L5 IgG4PE; copies: 2 + 2
Regarding B1, the EC50 in [1] turned out to be 0.564 µg/mL; in [2], 0.525 µg/mL; in experiment [3], 0.652 µg/mL; in experiment [7], 0.814 µg/mL; in experiment [8] it was 0.547 µg/mL; in experiment [9], 0.583 µg/mL. The binding result in [4], in [5] and in experiment [6] was “no binding” each time.
